Biological target: recombinant human full-length BIN1 isoform 8 (human)

Substance	relative membrane binding of Alexa488-ezrin-T567D on supported lipid bilayers with 5% PI(4,5)P2 in the presence of 0.1 µM BIN1 iso8, normalized to ezrin-T567D without BIN1 (confocal intensity) [fold]	relative membrane binding of Alexa488-ezrin on supported lipid bilayers with 5% PI(4,5)P2 in the presence of 0.1 µM BIN1 iso8, normalized to ezrin without BIN1 (confocal intensity) [fold]
recombinant ezrin T567D (from UniProt P15311 1-586) (natural protein)	1.5	
recombinant ezrin wild-type (from UniProt P15311 1-586) (natural protein)		2.5

Reference: publication PMC11082164
